Assay results as given in the supplement of paper PMC9112550, “Optimization of the antimicrobial peptide Bac7 by deep mutational scanning” (BMC Biology, 2022).

Tested on: Escherichia coli TOP10
Assay: shrunken log2 fold change of peptide-encoding DNA abundance (4.5 h post-induction vs induction); higher = less antimicrobial activity (less host growth inhibition)
Settings: time post-induction: 4.5 h; library: site-saturation at positions 5, 18, 19, 20
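Note: peptides expressed intracellularly from a pBAD plasmid library in pooled LB shake-flask culture, induced with 0.3% L-arabinose, DNA abundance read by NGS, three biological replicates, DESeq2 with apeglm shrinkage.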

Row | Sequence | shrunken log2 fold change
1 | RRIRMRPPRLPRPRPRPCFRPRP | 0.123
2 | RRIRMRPPRLPRPRPRPCFSPRP | -0.141
3 | RRIRMRPPRLPRPRPRPCFWPRP | 0.237
4 | RRIRMRPPRLPRPRPRPCGWPRP | 1.03
5 | RRIRMRPPRLPRPRPRPCHWPRP | -0.022
6 | RRIRMRPPRLPRPRPRPCIQPRP | -0.214
7 | RRIRMRPPRLPRPRPRPCIYPRP | 0.0933
8 | RRIRMRPPRLPRPRPRPCLNPRP | -0.0184
9 | RRIRMRPPRLPRPRPRPCMKPRP | -0.125
10 | RRIRMRPPRLPRPRPRPCNQPRP | -0.0399
11 | RRIRMRPPRLPRPRPRPCPAPRP | 0.574
12 | RRIRMRPPRLPRPRPRPCPPPRP | 0.106
13 | RRIRMRPPRLPRPRPRPCQQPRP | 0.0325
14 | RRIRMRPPRLPRPRPRPCSNPRP | 0.0191
15 | RRIRMRPPRLPRPRPRPCSQPRP | -0.00549
16 | RRIRMRPPRLPRPRPRPCYRPRP | 0.035
17 | RRIRMRPPRLPRPRPRPDAMPRP | 2.44
18 | RRIRMRPPRLPRPRPRPDCCPRP | 2.61
19 | RRIRMRPPRLPRPRPRPDCMPRP | 2.24
20 | RRIRMRPPRLPRPRPRPDCSPRP | 0.172
21 | RRIRMRPPRLPRPRPRPDDCPRP | 0.681
22 | RRIRMRPPRLPRPRPRPDDKPRP | 1.43

Row | Sequence | shrunken log2 fold change
23 | RRIRMRPPRLPRPRPRPDECPRP | 2.8
24 | RRIRMRPPRLPRPRPRPDELPRP | 2.12
25 | RRIRMRPPRLPRPRPRPDHFPRP | -0.0876
26 | RRIRMRPPRLPRPRPRPDIAPRP | 0.0562
27 | RRIRMRPPRLPRPRPRPDILPRP | 1.45
28 | RRIRMRPPRLPRPRPRPDKAPRP | -0.041
29 | RRIRMRPPRLPRPRPRPDKQPRP | 0.0746
30 | RRIRMRPPRLPRPRPRPDNLPRP | -0.205
31 | RRIRMRPPRLPRPRPRPDNNPRP | 0.274
32 | RRIRMRPPRLPRPRPRPDPVPRP | -0.0377
33 | RRIRMRPPRLPRPRPRPDQFPRP | -0.00541
34 | RRIRMRPPRLPRPRPRPDRHPRP | 0.0052
35 | RRIRMRPPRLPRPRPRPDRKPRP | 0.0503
36 | RRIRMRPPRLPRPRPRPDRTPRP | 0.52
37 | RRIRMRPPRLPRPRPRPDSRPRP | -0.00783
38 | RRIRMRPPRLPRPRPRPDTSPRP | 1.47
39 | RRIRMRPPRLPRPRPRPDTTPRP | 0.536
40 | RRIRMRPPRLPRPRPRPDVSPRP | 2.14
41 | RRIRMRPPRLPRPRPRPDVVPRP | -0.0061
42 | RRIRMRPPRLPRPRPRPEASPRP | 3.48
43 | RRIRMRPPRLPRPRPRPECEPRP | 0.206
44 | RRIRMRPPRLPRPRPRPECIPRP | 1.61

Row | Sequence | shrunken log2 fold change
45 | RRIRMRPPRLPRPRPRPEDSPRP | 0.0648
46 | RRIRMRPPRLPRPRPRPEEVPRP | 0.00922
47 | RRIRMRPPRLPRPRPRPEFIPRP | 0.01
48 | RRIRMRPPRLPRPRPRPEGGPRP | 1.33
49 | RRIRMRPPRLPRPRPRPEIEPRP | 0.0729
50 | RRIRMRPPRLPRPRPRPEKEPRP | -0.0085
51 | RRIRMRPPRLPRPRPRPENCPRP | 0.0159
52 | RRIRMRPPRLPRPRPRPENHPRP | 0.0929
53 | RRIRMRPPRLPRPRPRPENVPRP | -0.0285
54 | RRIRMRPPRLPRPRPRPEQFPRP | 0.216
55 | RRIRMRPPRLPRPRPRPEQPPRP | 0.395
56 | RRIRMRPPRLPRPRPRPEQQPRP | -0.0233
57 | RRIRMRPPRLPRPRPRPERHPRP | 0.764
58 | RRIRMRPPRLPRPRPRPESCPRP | 3.68
59 | RRIRMRPPRLPRPRPRPESNPRP | 0.102
60 | RRIRMRPPRLPRPRPRPESWPRP | 1.52
61 | RRIRMRPPRLPRPRPRPETIPRP | 0.0625
62 | RRIRMRPPRLPRPRPRPETNPRP | 2.42
63 | RRIRMRPPRLPRPRPRPEVWPRP | 1.13
64 | RRIRMRPPRLPRPRPRPEWSPRP | 0.721
65 | RRIRMRPPRLPRPRPRPEWTPRP | 0.749
66 | RRIRMRPPRLPRPRPRPEYIPRP | 0.0145

Row | Sequence | shrunken log2 fold change
67 | RRIRMRPPRLPRPRPRPFCNPRP | -0.148
68 | RRIRMRPPRLPRPRPRPFDLPRP | 0.16
69 | RRIRMRPPRLPRPRPRPFETPRP | -0.00884
70 | RRIRMRPPRLPRPRPRPFFEPRP | 0.597
71 | RRIRMRPPRLPRPRPRPFFIPRP | -0.247
72 | RRIRMRPPRLPRPRPRPFGCPRP | 0.254
73 | RRIRMRPPRLPRPRPRPFHAPRP | 0.199
74 | RRIRMRPPRLPRPRPRPFHIPRP | -0.269
75 | RRIRMRPPRLPRPRPRPFKHPRP | -0.306
76 | RRIRMRPPRLPRPRPRPFKYPRP | -0.164
77 | RRIRMRPPRLPRPRPRPFMHPRP | -0.647
78 | RRIRMRPPRLPRPRPRPFMLPRP | -0.213
79 | RRIRMRPPRLPRPRPRPFMPPRP | -0.127
80 | RRIRMRPPRLPRPRPRPFPTPRP | 0.153
81 | RRIRMRPPRLPRPRPRPFPVPRP | -0.175
82 | RRIRMRPPRLPRPRPRPFQCPRP | -0.153
83 | RRIRMRPPRLPRPRPRPFQMPRP | -0.323
84 | RRIRMRPPRLPRPRPRPFSGPRP | -0.0134
85 | RRIRMRPPRLPRPRPRPFSKPRP | -0.284
86 | RRIRMRPPRLPRPRPRPFSLPRP | -0.282
87 | RRIRMRPPRLPRPRPRPFSNPRP | -0.175
88 | RRIRMRPPRLPRPRPRPFTKPRP | -0.319

Row | Sequence | shrunken log2 fold change
89 | RRIRMRPPRLPRPRPRPFTPPRP | -0.397
90 | RRIRMRPPRLPRPRPRPFWDPRP | 0.359
91 | RRIRMRPPRLPRPRPRPFYRPRP | -0.0105
92 | RRIRMRPPRLPRPRPRPFYWPRP | 0.086
93 | RRIRMRPPRLPRPRPRPGAHPRP | 0.473
94 | RRIRMRPPRLPRPRPRPGCMPRP | 0.968
95 | RRIRMRPPRLPRPRPRPGCWPRP | 0.984
96 | RRIRMRPPRLPRPRPRPGDHPRP | 0.147
97 | RRIRMRPPRLPRPRPRPGETPRP | 0.0143
98 | RRIRMRPPRLPRPRPRPGFAPRP | 1.35
99 | RRIRMRPPRLPRPRPRPGFTPRP | 0.00309
100 | RRIRMRPPRLPRPRPRPGHDPRP | 0.0618
101 | RRIRMRPPRLPRPRPRPGHLPRP | 0.0373
102 | RRIRMRPPRLPRPRPRPGHSPRP | 0.182
103 | RRIRMRPPRLPRPRPRPGINPRP | -0.319
104 | RRIRMRPPRLPRPRPRPGIPPRP | 0.726
105 | RRIRMRPPRLPRPRPRPGIWPRP | 0.379
106 | RRIRMRPPRLPRPRPRPGKAPRP | 0.153
107 | RRIRMRPPRLPRPRPRPGLFPRP | 0.236
108 | RRIRMRPPRLPRPRPRPGLMPRP | 0.518
109 | RRIRMRPPRLPRPRPRPGMNPRP | -0.00589
